Measurements: patent US20260102475A1

B1: N240 (IdeS/IdeZ hybrid IgG cysteine protease) (protein)
chain: DDYQRNATEAYAKEVPHQITSVWTKGVTPPEQFTQGEDVIHAPYLAHQGWYDITKAFNGKDDLLCGAATAGNMLHWWFDQNKTEIEAYLSKHPEKQKIIFRNQELFDLKAAIDTKDSQTNSQLFNYFRDKAFPNLSARQLGVMPDLVLDMFINGYYLNVFKTQSTDVNRPYQDKDKRGGIFDAVFTRGNQTTLLTARHDLKNKGLNDISTIIKQELTEGRALALSHTYANVSISHVINLWGADFNAEGNLEAIYVTDSDANASIGMKKYFVGINAHGHVAISAKKIEGENIGAQVLGLFTLSSGKDIWQKLS
B2: imlifidase (IdeS, Immunoglobulin G-degrading enzyme of S. pyogenes) (protein)
chain: DSFSANQEIRYSEVTPYHVTSVWTKGVTPPANFTQGEDVFHAPYVANQGWYDITKTFNGKDDLLCGAATAGNMLHWWFDQNKDQIKRYLEEHPEKQKINFNGEQMFDVKEAIDTKNHQLDSKLFEYFKEKAFPYLSTKHLGVFPDHVIDMFINGYRLSLTNHGPTPVKEGSKDPRGGIFDAVFTRGDQSKLLTSRHDFKEKNLKEISDLIKKELTEGKALGLSHTYANVRINHVINLWGADFDSNGNLKAIYVTDSDSNASIGMKKYFVGVNSAGKVAISAKEIKEDNIGAQVLGLFTLSTGQDSWNQTN

How the values were obtained:
[1] = biological target: IgG in human serum (serum pool n=100; pre-dose patient serum)
[2] = biological target: polyclonal IgG (substrate spiked into post-dose sera)

Row | Protein | cleavage of IgG in pre-dose patient serum, SDS-PAGE and SAB-HLA [1] | cleavage of IgG in serum, SDS-PAGE [1] | degradation of substrate spiked into sera collected after imlifidase dosing [2]
1 | B1 | N240 showed similar cleavage properties to imlifidase | – | –
2 | B2 | – | a concentration of around 2 µg/mL imlifidase was needed to start the cleavage in serum and concentrations below this did not result in any cleavage despite prolonged incubation | When polyclonal IgG was used as substrate, no degradation was seen in samples collected from 48 hours after dosing and forward
